Reference: patent publication US20120214165A1

Molecular target: Epithelial cell adhesion molecule (EpCAM) (human) (UniProt P16422)
Experiment: cell-based or functional assay

Sequence of UniProt P16422 (P16422 24-314 M115T limits assumed): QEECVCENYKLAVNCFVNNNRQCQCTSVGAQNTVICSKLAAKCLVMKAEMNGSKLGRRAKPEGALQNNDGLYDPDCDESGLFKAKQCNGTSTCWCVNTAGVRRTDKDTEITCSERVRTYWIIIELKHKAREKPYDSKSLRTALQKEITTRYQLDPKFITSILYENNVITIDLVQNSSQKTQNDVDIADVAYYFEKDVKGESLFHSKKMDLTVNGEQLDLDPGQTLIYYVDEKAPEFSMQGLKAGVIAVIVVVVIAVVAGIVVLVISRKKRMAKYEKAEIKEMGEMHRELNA

VB4-845 immunotoxin (from UniProt P11439 277-633)
IC50 of inhibition of proliferation, MTT based cell viability assay, ARO cells: 0.7 pM
IC50 of inhibition of proliferation, MTT based cell viability assay, WRO cells: 1 pM
